From publication PMC2112199 (The Journal of Cell Biology, 1982)
Values joined by “and” are separate entries in the source; they are usually repeats but may differ in a detail not shown here. Equal entries are not always repeated. Where two headings read alike, the source gives them in different places.

Experiments:
[1] = molecular target: Acanthamoeba actin (Acanthamoeba); test: critical concentration of actin polymerization at steady state
[2] = molecular target: Acanthamoeba actin (Acanthamoeba)
[3] = molecular target: Rabbit skeletal muscle actin (rabbit, UniProt P68135 1-377); test: inhibition of actin polymerization by profilin

B1: Acanthamoeba profilin (natural protein)
chain: SWQTYVDTNLVGTGAVTQAAILGLDGNTWATSAGFAVTPAQGQTLASAFNNADPIRASGFDLAGVHYVTLRADDRSIYGKKGSAGVITVKTSKSILVGVYNEKIQPGTAANVVEKLADYLIGQGF
In the case of B1, the Kd [1] is reported as 0.9 µM and 1.4 µM and 1.3 µM, the Kd [2] is reported as 4 µM and 3.1 µM and 3.7 µM and the Kd [3] is reported as greater than 30 µM.
